Molecular target: cir1_human CIR1 (UniProt Q86X95)
Sequence (Q86X95 whole entry): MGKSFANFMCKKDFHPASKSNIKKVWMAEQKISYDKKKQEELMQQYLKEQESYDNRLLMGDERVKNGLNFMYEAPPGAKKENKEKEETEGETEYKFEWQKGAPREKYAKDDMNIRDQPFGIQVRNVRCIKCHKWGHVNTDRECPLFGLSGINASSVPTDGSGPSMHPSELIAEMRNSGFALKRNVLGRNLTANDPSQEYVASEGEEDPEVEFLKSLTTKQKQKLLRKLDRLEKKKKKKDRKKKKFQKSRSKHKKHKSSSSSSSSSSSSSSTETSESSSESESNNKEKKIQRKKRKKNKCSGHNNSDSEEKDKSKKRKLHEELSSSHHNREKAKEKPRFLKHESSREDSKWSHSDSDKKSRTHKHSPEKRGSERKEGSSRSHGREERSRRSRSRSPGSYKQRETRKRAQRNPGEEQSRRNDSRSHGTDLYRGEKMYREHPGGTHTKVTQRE

Sequence of Recombining binding protein suppressor of hairless (Homo sapiens), Q06330 E233A;E234A;F235A (Q06330 whole entry E233A/E234A/F235A): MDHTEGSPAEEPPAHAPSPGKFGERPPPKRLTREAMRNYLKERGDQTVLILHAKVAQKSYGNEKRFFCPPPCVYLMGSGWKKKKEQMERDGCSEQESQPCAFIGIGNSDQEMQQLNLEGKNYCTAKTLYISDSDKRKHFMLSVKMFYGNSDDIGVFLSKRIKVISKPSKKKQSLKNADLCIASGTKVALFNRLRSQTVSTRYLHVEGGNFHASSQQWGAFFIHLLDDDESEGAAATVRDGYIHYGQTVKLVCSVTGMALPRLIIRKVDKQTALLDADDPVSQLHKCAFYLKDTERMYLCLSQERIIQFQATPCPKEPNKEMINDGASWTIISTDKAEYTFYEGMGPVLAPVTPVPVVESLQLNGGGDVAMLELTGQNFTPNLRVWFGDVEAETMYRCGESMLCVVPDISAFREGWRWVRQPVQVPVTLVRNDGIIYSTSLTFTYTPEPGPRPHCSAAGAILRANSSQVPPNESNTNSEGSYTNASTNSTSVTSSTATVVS
Sequence of Recombining binding protein suppressor of hairless (Homo sapiens), Q06330 K249A;L250A;V251A (Q06330 whole entry K249A/L250A/V251A): as the sequence (Q06330 whole entry E233A/E234A/F235A) above, with A233E, A234E, A235F, K249A, L250A, V251A counted along it

| Substance | effect of a mutation on the interaction |
| --- | --- |
| Recombining binding protein suppressor of hairless (Homo sapiens), Q06330 E233A;E234A;F235A | disrupting interaction strength |
| Recombining binding protein suppressor of hairless (Homo sapiens), Q06330 K249A;L250A;V251A | disrupting interaction strength |

Reference: IntAct's records for PubMed 9874765
